Legend:
EDIII-DV1 [1] = molecular target: T1, EDIII-DV1 (Dengue virus serotype 1, UniProt P17763 581-673); experiment: SPR
T1 construct: also called EDIII of DV1; envelope glycoprotein domain III of Dengue virus serotype 1

EDIII-DV3 [2] = molecular target: T2, EDIII-DV3 (Dengue virus serotype 3, UniProt Q6YMS3 579-671); experiment: SPR
T2 construct: also called EDIII of DV3; envelope glycoprotein domain III of Dengue virus serotype 3

EDIII-DV1 [3] = molecular target: T1, EDIII-DV1; experiment: SPR; remark: listed apart in the source
EDIII-DV2 [4] = molecular target: T3, EDIII-DV2 (Dengue virus serotype 2, UniProt P14337 581-673); experiment: SPR
T3 construct: also called EDIII of DV2; envelope glycoprotein domain III of Dengue virus serotype 2

EDIII-DV3 [5] = molecular target: T2, EDIII-DV3; experiment: SPR; remark: listed apart in the source
EDIII-DV1 [6] = molecular target: T1, EDIII-DV1; experiment: competition ELISA
EDIII-DV2 [7] = molecular target: T3, EDIII-DV2; experiment: competition ELISA
EDIII-DV3 [8] = molecular target: T2, EDIII-DV3; experiment: competition ELISA
[9] = molecular target: T4, Dengue virus serotype 1 (DV1), envelope (E) glycoprotein on virus (Dengue virus serotype 1); experiment: cell-based or functional assay
[10] = molecular target: T5, Dengue virus serotype 2 (DV2), envelope (E) glycoprotein on virus (Dengue virus serotype 2); experiment: cell-based or functional assay
[11] = molecular target: T6, Dengue virus serotype 3 (DV3), envelope (E) glycoprotein on virus (Dengue virus serotype 3); experiment: cell-based or functional assay
EDIII-DV1 [12] = molecular target: T1, EDIII-DV1; experiment: competition ELISA, equilibrium in solution
EDIII-DV2 [13] = molecular target: T3, EDIII-DV2; experiment: competition ELISA, equilibrium in solution
EDIII-DV3 [14] = molecular target: T2, EDIII-DV3; experiment: competition ELISA, equilibrium in solution
EDIII-DV2 [15] = molecular target: T3, EDIII-DV2; experiment: indirect ELISA, coated recombinant EDIII
EDIII-DV1 [16] = molecular target: T1, EDIII-DV1; experiment: indirect ELISA, coated recombinant EDIII
EDIII-DV3 [17] = molecular target: T2, EDIII-DV3; experiment: indirect ELISA, coated recombinant EDIII
EDIII-DV4 [18] = molecular target: T7, EDIII-DV4 (Dengue virus serotype 4, UniProt P09866 580-672); experiment: indirect ELISA, coated recombinant EDIII
EDIII-DV4 [19] = molecular target: T7, EDIII-DV4; experiment: competition ELISA, equilibrium in solution
EDIII-DV4 [20] = molecular target: T7, EDIII-DV4; experiment: calculated from KD, ΔG = RTln(KD) at 25° C
EDIII-DV2 [21] = molecular target: T3, EDIII-DV2; experiment: SPR; remark: listed apart in the source
[22] = molecular target: T4, Dengue virus serotype 1 (DV1), envelope …; experiment: cell-based or functional assay; remark: listed apart in the source
[23] = molecular target: T5, Dengue virus serotype 2 (DV2), envelope …; experiment: cell-based or functional assay; remark: listed apart in the source
[24] = molecular target: T6, Dengue virus serotype 3 (DV3), envelope …; experiment: cell-based or functional assay; remark: listed apart in the source
[25] = molecular target: Dengue virus serotype 4 (DV4), envelope (E) glycoprotein on virus (Dengue virus serotype 4); experiment: cell-based or functional assay

B1: 4E11 WT (antibody, V domains shown)
VH: VKLLEQSGAELVKPGASVRLSCTASGFNIKDTYMSWVKQRPEQGLEWIGRIDPANGDTKYDPKFQGKATITADTSSNTAYLHLSSLTSGDTAVYYCSRGWEGFAYWGQGTLVTVSA
VL: ELVMTQTPASLAVSLGQRATISCRASENVDRYGNSFMHWYQQKAGQPPKLLIYRASNLESGIPARFSGSGSRTDFTLTINPVEADDVATYFCQRSNEVPWTFGGGTKLEIKR
notes: also called wt 4E11; WT 4E11
With B1 the Kd (EDIII-DV1 [1]) was 0.5 nM, the Kd (EDIII-DV3 [2]) was 7.58 nM and the koff (EDIII-DV1 [3]) was 0.000551 s⁻¹. It also gave a kon (EDIII-DV1 [3]) of 1.11e+06 M⁻¹ s⁻¹, a koff (EDIII-DV2 [4]) of 0.0123 s⁻¹ and a kon (EDIII-DV2 [4]) of 1.98e+06 M⁻¹ s⁻¹. For the same binder, the koff (EDIII-DV3 [5]) was 0.0102 s⁻¹, the kon (EDIII-DV3 [5]) was 1.34e+06 M⁻¹ s⁻¹ and the Kd (EDIII-DV1 [6]) was 0.328 nM. For the same binder, the Kd (EDIII-DV2 [7]) was 5.2 nM, the Kd (EDIII-DV3 [8]) was 21.8 nM and the “IC50 (read off the curve)” value [9] was ~0.06 µg/mL. The “IC50 (read off the curve)” value [10] was ~0.03 µg/mL, the “IC50 (read off the curve)” value [11] was ~0.5 µg/mL and the Kd (EDIII-DV1 [12]) was 0.328 nM. The Kd (EDIII-DV2 [13]) was 5.2 nM and the Kd (EDIII-DV3 [14]) was 21.8 nM.

B2: 4E11 VL-R31K single mutant (antibody, V domains shown)
VH: VKLLEQSGAELVKPGASVRLSCTASGFNIKDTYMSWVKQRPEQGLEWIGRIDPANGDTKYDPKFQGKATITADTSSNTAYLHLSSLTSGDTAVYYCSRGWEGFAYWGQGTLVTVSA
VL: ELVMTQTPASLAVSLGQRATISCRASENVDKYGNSFMHWYQQKAGQPPKLLIYRASNLESGIPARFSGSGSRTDFTLTINPVEADDVATYFCQRSNEVPWTFGGGTKLEIKR
B2: binds (EDIII-DV2 [15]).

B3: 4E11 VL Ser60Tyr single mutant (antibody, V domains shown)
VH: VKLLEQSGAELVKPGASVRLSCTASGFNIKDTYMSWVKQRPEQGLEWIGRIDPANGDTKYDPKFQGKATITADTSSNTAYLHLSSLTSGDTAVYYCSRGWEGFAYWGQGTLVTVSA
VL: ELVMTQTPASLAVSLGQRATISCRASENVDRYGNSFMHWYQQKAGQPPKLLIYRASNLEYGIPARFSGSGSRTDFTLTINPVEADDVATYFCQRSNEVPWTFGGGTKLEIKR
notes: also called S60Y
B3: binds (EDIII-DV1 [16]); binds (EDIII-DV2 [15]); binds (EDIII-DV3 [17]). B3: binds (EDIII-DV4 [18]).

B4: 4E11 VL-N57E single mutant (antibody, V domains shown)
VH: VKLLEQSGAELVKPGASVRLSCTASGFNIKDTYMSWVKQRPEQGLEWIGRIDPANGDTKYDPKFQGKATITADTSSNTAYLHLSSLTSGDTAVYYCSRGWEGFAYWGQGTLVTVSA
VL: ELVMTQTPASLAVSLGQRATISCRASENVDRYGNSFMHWYQQKAGQPPKLLIYRASELESGIPARFSGSGSRTDFTLTINPVEADDVATYFCQRSNEVPWTFGGGTKLEIKR
With B4 the Kd (EDIII-DV4 [19]) was 8410 nM, the ΔG (EDIII-DV4 [20]) was -6.92 kcal/mol and the “ΔΔG (ΔGmutant - ΔGWT)” value (EDIII-DV4 [20]) was -0.93 kcal/mol.

B5: 4E11 VL Asn57Ser single mutant (antibody, V domains shown)
VH: VKLLEQSGAELVKPGASVRLSCTASGFNIKDTYMSWVKQRPEQGLEWIGRIDPANGDTKYDPKFQGKATITADTSSNTAYLHLSSLTSGDTAVYYCSRGWEGFAYWGQGTLVTVSA
VL: ELVMTQTPASLAVSLGQRATISCRASENVDRYGNSFMHWYQQKAGQPPKLLIYRASSLESGIPARFSGSGSRTDFTLTINPVEADDVATYFCQRSNEVPWTFGGGTKLEIKR
B5: binds (EDIII-DV1 [16]); binds (EDIII-DV2 [15]); binds (EDIII-DV3 [17]). B5: binds (EDIII-DV4 [18]).

B6: 4E11 VH Ala55Asp single mutant (antibody, V domains shown)
VH: VKLLEQSGAELVKPGASVRLSCTASGFNIKDTYMSWVKQRPEQGLEWIGRIDPDNGDTKYDPKFQGKATITADTSSNTAYLHLSSLTSGDTAVYYCSRGWEGFAYWGQGTLVTVSA
VL: ELVMTQTPASLAVSLGQRATISCRASENVDRYGNSFMHWYQQKAGQPPKLLIYRASNLESGIPARFSGSGSRTDFTLTINPVEADDVATYFCQRSNEVPWTFGGGTKLEIKR
notes: also called A55D
B6: binds (EDIII-DV1 [16]); binds (EDIII-DV2 [15]); binds (EDIII-DV3 [17]). B6: binds (EDIII-DV4 [18]).

B7: 4E11 VL Ser60Arg single mutant (antibody, V domains shown)
VH: VKLLEQSGAELVKPGASVRLSCTASGFNIKDTYMSWVKQRPEQGLEWIGRIDPANGDTKYDPKFQGKATITADTSSNTAYLHLSSLTSGDTAVYYCSRGWEGFAYWGQGTLVTVSA
VL: ELVMTQTPASLAVSLGQRATISCRASENVDRYGNSFMHWYQQKAGQPPKLLIYRASNLERGIPARFSGSGSRTDFTLTINPVEADDVATYFCQRSNEVPWTFGGGTKLEIKR
notes: also called S60R
B7: binds (EDIII-DV1 [16]); binds (EDIII-DV2 [15]); binds (EDIII-DV3 [17]). B7: binds (EDIII-DV4 [18]).

B8: 4E11 VL-S60W single mutant (antibody, V domains shown)
VH: VKLLEQSGAELVKPGASVRLSCTASGFNIKDTYMSWVKQRPEQGLEWIGRIDPANGDTKYDPKFQGKATITADTSSNTAYLHLSSLTSGDTAVYYCSRGWEGFAYWGQGTLVTVSA
VL: ELVMTQTPASLAVSLGQRATISCRASENVDRYGNSFMHWYQQKAGQPPKLLIYRASNLEWGIPARFSGSGSRTDFTLTINPVEADDVATYFCQRSNEVPWTFGGGTKLEIKR
B8: binds (EDIII-DV2 [15]).

B9: 4E5A (antibody, V domains shown)
VH: VKLLEQSGAELVKPGASVRLSCTASGFNIKDTYMSWVKQRPEQGLEWIGRIDPENGDTKYDPKFQGKATITADTSSNTAYLHLSSLTSGDTAVYYCSRGWEGFAYWGQGTLVTVSA
VL: ELVMTQTPASLAVSLGQRATISCRASENVDKYGNSFMHWYQQKAGQPPKLLIYRASELQWGIPARFSGSGSRTDFTLTINPVEADDVATYFCQRSNEVPWTFGGGTKLEIKR
notes: also called 4E11-5A; quintuple mutant antibody
With B9 the Kd (EDIII-DV2 [21]) was 0.7 nM, the FRNT50 [22] was 0.19 µg/mL and the FRNT50 [23] was 0.028 µg/mL. For the same binder, the FRNT50 [24] was 0.77 µg/mL and the FRNT50 [25] was 4 µg/mL.

B10: 4E11 VL-E59Q single mutant (antibody, V domains shown)
VH: VKLLEQSGAELVKPGASVRLSCTASGFNIKDTYMSWVKQRPEQGLEWIGRIDPANGDTKYDPKFQGKATITADTSSNTAYLHLSSLTSGDTAVYYCSRGWEGFAYWGQGTLVTVSA
VL: ELVMTQTPASLAVSLGQRATISCRASENVDRYGNSFMHWYQQKAGQPPKLLIYRASNLQSGIPARFSGSGSRTDFTLTINPVEADDVATYFCQRSNEVPWTFGGGTKLEIKR
In the case of B10, the binding result (EDIII-DV2 [15]) is reported as “binds”, the Kd (EDIII-DV4 [19]) is reported as 11000 nM and the ΔG (EDIII-DV4 [20]) is reported as -6.76 kcal/mol. For the same binder, the “ΔΔG (ΔGmutant - ΔGWT)” value (EDIII-DV4 [20]) was -0.77 kcal/mol.

B11: 4E11 VH-A55E single mutant (antibody, V domains shown)
VH: VKLLEQSGAELVKPGASVRLSCTASGFNIKDTYMSWVKQRPEQGLEWIGRIDPENGDTKYDPKFQGKATITADTSSNTAYLHLSSLTSGDTAVYYCSRGWEGFAYWGQGTLVTVSA
VL: ELVMTQTPASLAVSLGQRATISCRASENVDRYGNSFMHWYQQKAGQPPKLLIYRASNLESGIPARFSGSGSRTDFTLTINPVEADDVATYFCQRSNEVPWTFGGGTKLEIKR
B11 was tested, and the Kd (EDIII-DV4 [19]) was 4440 nM, the ΔG (EDIII-DV4 [20]) was -7.29 kcal/mol and the “ΔΔG (ΔGmutant - ΔGWT)” value (EDIII-DV4 [20]) was -1.31 kcal/mol.

B12: 4E11 VL Glu59Asn single mutant (antibody, V domains shown)
VH: VKLLEQSGAELVKPGASVRLSCTASGFNIKDTYMSWVKQRPEQGLEWIGRIDPANGDTKYDPKFQGKATITADTSSNTAYLHLSSLTSGDTAVYYCSRGWEGFAYWGQGTLVTVSA
VL: ELVMTQTPASLAVSLGQRATISCRASENVDRYGNSFMHWYQQKAGQPPKLLIYRASNLNSGIPARFSGSGSRTDFTLTINPVEADDVATYFCQRSNEVPWTFGGGTKLEIKR
notes: also called E59N
B12: binds (EDIII-DV1 [16]); binds (EDIII-DV2 [15]); binds (EDIII-DV3 [17]). B12: binds (EDIII-DV4 [18]).

Reference: patent US20200264176A1 (MIT, published 2020)
